Publication PMC10786891, “Massively parallel profiling of RNA-targeting CRISPR-Cas13d”

B1: target 1 insC 3' of 12,insA 3' of 5 (mixed)
RNA 1: CACCCGUGCAAAAAUGCAGGGGUCUAAAACUGAGCGGAUAACCUCUCUAUGG
RNA 2: GGGAAUGGAUCCACAUCUACGAAUUCGUACCAUAGAGAGGCUUAUCCGACUCACCGAGAUCGGAAGAGCACACGU
B2: target 1 insU 3' of 7,insA 3' of 6 (mixed)
RNA 1: CACCCGUGCAAAAAUGCAGGGGUCUAAAACUGAGCGGAUAACCUCUCUAUGG
RNA 2: GGGAAUGGAUCCACAUCUACGAAUUCGUACCAUAGAGAGGUUAUCUCAGCUCACCGAGAUCGGAAGAGCACACGU
B3: target 1 del3,del8 (mixed)
RNA 1: CACCCGUGCAAAAAUGCAGGGGUCUAAAACUGAGCGGAUAACCUCUCUAUGG
RNA 2: GGGAAUGGAUCCACAUCUACGAAUUCGUACCAUAGAGAGGUUACCGCCACCGAGAUCGGAAGAGCACACGU
B4: target 1 insG 3' of 6,insA 3' of 3 (mixed)
RNA 1: CACCCGUGCAAAAAUGCAGGGGUCUAAAACUGAGCGGAUAACCUCUCUAUGG
RNA 2: GGGAAUGGAUCCACAUCUACGAAUUCGUACCAUAGAGAGGUUAUCCGGCUACACCGAGAUCGGAAGAGCACACGU
B5: target 1 G15C,G17C (mixed)
RNA 1: CACCCGUGCAAAAAUGCAGGGGUCUAAAACUGAGCGGAUAACCUCUCUAUGG
RNA 2: GGGAAUGGAUCCACAUCUACGAAUUCGUACCAUACACAGGUUAUCCGCUCACCGAGAUCGGAAGAGCACACGU
B6: target 1 insG 3' of 16,insA 3' of 8 (mixed)
RNA 1: CACCCGUGCAAAAAUGCAGGGGUCUAAAACUGAGCGGAUAACCUCUCUAUGG
RNA 2: GGGAAUGGAUCCACAUCUACGAAUUCGUACCAUAGAGGAGGUUAUACCGCUCACCGAGAUCGGAAGAGCACACGU
B7: target 1 C6A,A18U (mixed)
RNA 1: CACCCGUGCAAAAAUGCAGGGGUCUAAAACUGAGCGGAUAACCUCUCUAUGG
RNA 2: GGGAAUGGAUCCACAUCUACGAAUUCGUACCAUUGAGAGGUUAUCAGCUCACCGAGAUCGGAAGAGCACACGU
B8: target 1 G15A,G17U (mixed)
RNA 1: CACCCGUGCAAAAAUGCAGGGGUCUAAAACUGAGCGGAUAACCUCUCUAUGG
RNA 2: GGGAAUGGAUCCACAUCUACGAAUUCGUACCAUAUAAAGGUUAUCCGCUCACCGAGAUCGGAAGAGCACACGU
B9: target 1 insU 3' of 17,insA 3' of 7 (mixed)
RNA 1: CACCCGUGCAAAAAUGCAGGGGUCUAAAACUGAGCGGAUAACCUCUCUAUGG
RNA 2: GGGAAUGGAUCCACAUCUACGAAUUCGUACCAUAGUAGAGGUUAUCACGCUCACCGAGAUCGGAAGAGCACACGU
B10: target 1 insG 3' of 10,insG 3' of 6 (mixed)
RNA 1: CACCCGUGCAAAAAUGCAGGGGUCUAAAACUGAGCGGAUAACCUCUCUAUGG
RNA 2: GGGAAUGGAUCCACAUCUACGAAUUCGUACCAUAGAGAGGUUGAUCCGGCUCACCGAGAUCGGAAGAGCACACGU
B11: target 1 insA 3' of 19,insG 3' of 16 (mixed)
RNA 1: CACCCGUGCAAAAAUGCAGGGGUCUAAAACUGAGCGGAUAACCUCUCUAUGG
RNA 2: GGGAAUGGAUCCACAUCUACGAAUUCGUACCAUAAGAGGAGGUUAUCCGCUCACCGAGAUCGGAAGAGCACACGU
B12: target 1 insG 3' of 7,insU 3' of 5 (mixed)
RNA 1: CACCCGUGCAAAAAUGCAGGGGUCUAAAACUGAGCGGAUAACCUCUCUAUGG
RNA 2: GGGAAUGGAUCCACAUCUACGAAUUCGUACCAUAGAGAGGUUAUCGCGUCUCACCGAGAUCGGAAGAGCACACGU
B13: target 1 insC 3' of 17,insU 3' of 12 (mixed)
RNA 1: CACCCGUGCAAAAAUGCAGGGGUCUAAAACUGAGCGGAUAACCUCUCUAUGG
RNA 2: GGGAAUGGAUCCACAUCUACGAAUUCGUACCAUAGCAGAGGUUUAUCCGCUCACCGAGAUCGGAAGAGCACACGU

Target: T1, EsCas13d, nuclease-dead (Eubacterium siraeum, UniProt B0MS50, R295A;H300A;R849A;H854A)
T1 sequence: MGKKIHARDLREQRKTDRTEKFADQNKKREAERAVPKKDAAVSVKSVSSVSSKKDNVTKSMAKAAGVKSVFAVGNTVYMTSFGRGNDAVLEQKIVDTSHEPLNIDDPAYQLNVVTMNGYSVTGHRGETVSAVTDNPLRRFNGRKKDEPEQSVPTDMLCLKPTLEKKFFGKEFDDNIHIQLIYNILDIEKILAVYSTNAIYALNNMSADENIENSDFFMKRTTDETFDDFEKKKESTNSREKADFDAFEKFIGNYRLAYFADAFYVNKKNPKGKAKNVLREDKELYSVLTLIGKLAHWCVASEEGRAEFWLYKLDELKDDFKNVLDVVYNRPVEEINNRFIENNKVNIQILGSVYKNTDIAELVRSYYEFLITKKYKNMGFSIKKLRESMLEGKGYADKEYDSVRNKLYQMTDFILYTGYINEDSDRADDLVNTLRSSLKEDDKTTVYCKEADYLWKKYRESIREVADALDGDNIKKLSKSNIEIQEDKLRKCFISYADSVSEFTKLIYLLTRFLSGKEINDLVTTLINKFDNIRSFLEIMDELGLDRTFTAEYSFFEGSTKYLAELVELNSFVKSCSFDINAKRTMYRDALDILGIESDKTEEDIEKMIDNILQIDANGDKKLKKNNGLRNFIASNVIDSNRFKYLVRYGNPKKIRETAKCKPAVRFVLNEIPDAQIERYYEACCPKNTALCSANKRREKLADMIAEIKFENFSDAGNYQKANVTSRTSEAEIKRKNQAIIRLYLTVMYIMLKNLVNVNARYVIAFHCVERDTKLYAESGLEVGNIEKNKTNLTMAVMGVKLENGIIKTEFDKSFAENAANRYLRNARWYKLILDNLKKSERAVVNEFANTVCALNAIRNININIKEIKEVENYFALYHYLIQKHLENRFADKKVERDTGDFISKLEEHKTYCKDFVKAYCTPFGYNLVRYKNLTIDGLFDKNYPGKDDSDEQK
Experiment: crRNA (strand 1, pre-loaded); Mg2+; 40 mM Tris-HCl pH 7.5, 150 mM NaCl, 6 mM MgCl2, 1 mM DTT, 0.1% Tween-20, 0.2 mg/ml BSA; 25 C; 10 min per concentration, then washed
Details: tags: His6-TwinStrep-SUMO cleaved; N-terminal SNAP kept (SNAP-Surface 488); label: 3' end held by stalled T7 RNA polymerase

Binder | Kd [nM]
B1 | 10.4 ± 1.1
B2 | 23.7 ± 0.8
B3 | 7.05 ± 0.33
B4 | 6.9 ± 0.4
B5 | 50 ± 10
B6 | 22.1 ± 1.8
B7 | 26.7 ± 2.1
B8 | 73 ± 13
B9 | 14.2 ± 1.2
B10 | 22.2 ± 1.5
B11 | 46 ± 6
B12 | 13.8 ± 1
B13 | 42 ± 6
